The source of these data is US20110294728A1, “Antiviral Polypeptides” (priority 2008, published 2011).

Where no end group is shown, it is not given here.

The first assay concerns the target HA-tagged Integrase (stably expressed in HeLa cells) (HIV-1). As to the kind of experiment: cell-based or functional assay.
In turn, GTKWLTEWIPLTAEAE (modifications not checked) [PAW] returned an IN half-life (cycloheximide treatment, 1 µM PAW) of 17 min and an integrase located in the nucleus (High Content Screening, HeLa cells) of 35%.

For a further assay, the target named is HIV-1 integrase (HIV-1). As to the kind of experiment: cell-based or functional assay.
The molecule GTKWLTEWIPLTAEAEC (not fully specified) [PAW-FITC] showed an IC50 3′-proc (gel electrophoresis) of 10 µM.

As to GTKWLTEVWPL (modifications not checked) [P16], the EC50 (µM) 3′processing amounted to 10 µM, the EC50 (µM) IN/DNA binding is 8 µM and the EC50 (µM) IN/DNA dissociation stood at 11 µM.

For the molecule GTKWLTEWIPLTAEAE (modifications not checked) [PAW], the EC50 (µM) 3′processing was found to be 12 µM, the EC50 (µM) IN/DNA binding worked out at 10 µM, the EC50 (µM) IN/DNA dissociation was 15 µM and the IC50 3′-proc amounted to 12.7 µM.

Take GTKWLTEWIPL (modifications not checked) [P24]: the EC50 (µM) 3′processing was found to be 33 µM, the EC50 (µM) IN/DNA binding was 35 µM and the EC50 (µM) IN/DNA dissociation was 21 µM.

GTKWLTEWIPLTAE (modifications not checked) [P27] registered an EC50 (µM) 3′processing above 100 µM, an EC50 (µM) IN/DNA binding above 100 µM and an EC50 (µM) IN/DNA dissociation above 100 µM.

Regarding KWLTEWIPLTAEAE (modifications not checked) [P26], the EC50 (µM) 3′processing was found to be 28 µM, the EC50 (µM) IN/DNA binding stood at 54 µM and the EC50 (µM) IN/DNA dissociation was found to be 67 µM.

The next assay deals with T1, HIV-1 reverse transcriptase, heterodimeric p66/p51 (HIV-1), P03366. The assay can be described thus: RT polymerase inhibition assay.
In general, Ki refers to the dissociation constant of the complex between target and ligand, obtained from inhibition or displacement. For CGTKWLTEWIPLTAEAEC (modifications not checked) [PAW-C1], the Ki amounted to 0.2 µM.

In the case of GTKWLTEVWPL (modifications not checked) [P16], the Ki turned out to be 14.4 µM.

GTKWLTEWIPLTAEAE (modifications not checked) [PAW]: the Ki stood at 0.7 µM.

Molecule GCKWLTEWIPLTAEAEC (modifications not checked) [PAW-C2] had an inhibitory constant (Ki) of 1.4 µM.

Molecule GTKWLTEWIPLTAE (modifications not checked) [P27] displayed an inhibition constant Ki of 0.05 µM.

CGTKWLTEVWPLC (modifications not checked) [P16C1] returned a Ki of 32.1 µM.

In turn, CGTKWLTEWIPLTAEC (modifications not checked) [P27C1] yielded a Ki of 0.042 µM.

Another assay addresses T1, HIV-1 reverse transcriptase, …. As to the kind of experiment: RT polymerase inhibition assay, Ki.
The molecule GTKALAEVIPLTEEAE (modifications not checked) [P7] returned a fold reduction in potency against P1 of 2 fold.

As to GTKGLTEVIPLTEEAE (modifications not checked) [P5], the fold reduction in potency against P1 amounted to 2.7 fold.

GTKALTAVIPLTEEAE (modifications not checked) [P8] yielded a fold reduction in efficiency against P1 of 8 fold.

The molecule GTKWLTEWIPLTAEAEC (not fully specified) [PAW-FITC] returned a fold greater Ki than PAW of 3.8 fold.

GTKWLTEVWPL (modifications not checked) [P16]: the fold reduction in efficiency against PAW worked out at 20 fold.

GTKAWTEVWPL (modifications not checked) [P17] showed a fold reduction in efficiency against PAW of 50 fold.

Molecule GTKALTEVIPLTEEAE (modifications not checked) [P1] registered a fold increase in potency against Pep-A of 5 fold.

The molecule GTKALTEAIPLTEEAE (modifications not checked) [P9] gave a fold reduction in potency against P1 of 2 fold.

GTKWLTEWIPLTAEAE (modifications not checked) [PAW] showed a fold improvement in efficiency over P6 of 10 fold and a fold improvement in efficiency over Pep-A of 50 fold.

Take GTAALTEVIPLTEEAE (modifications not checked) [P4]: the fold reduction in potency against P1 came out at 2 fold.

Turning to GTKWLTEWIPLTAE (modifications not checked) [P27], the fold increase in efficiency against PAW came out at 14 fold.

Molecule KWLTEWIPLTAEAE (modifications not checked) [P26] returned a fold reduction in efficiency against PAW of 2.5 fold.

The target in the next assay is T2, RT:p/t (HIV-1 RT heterodimer pre-bound to DNA/DNA primer/template) (HIV-1), P03366. As to the kind of experiment: steady-state fluorescence titration.
For the molecule GTKWLTEWIPLTAEAEC (not fully specified) [PAW-FITC], the fold increase in affinity against RT without p/t was found to be 5 fold and the fold lower Kd than unlabelled PAW amounted to 5.6 fold.

Another assay concerns the target HIV-1 integrase (HIV-1). The assay can be described thus: steady state fluorescence and anisotropy.
A word on the Kd: it is the equilibrium constant for the complex coming apart. CGTKWLTEWIPLTAEAEC (modifications not checked) [PAW-C1]: the Kd is 0.29 µM.

On to GTKWLTEVWPL (modifications not checked) [P16], for which the Kd was 0.12 µM.

GTKWLTEWIPLTAEAE (modifications not checked) [PAW] had a Kd of 0.23 µM.

The molecule GTKWLTEWIPL (modifications not checked) [P24] showed a dissociation constant Kd of 0.35 µM.

Molecule GCKWLTEWIPLTAEAEC (modifications not checked) [PAW-C2] gave a Kd of 0.12 µM.

GTKWLTEWIPLTAE (modifications not checked) [P27] registered an equilibrium dissociation constant (Kd) above 100 µM.

Take KWLTEWIPLTAEAE (modifications not checked) [P26]: the Kd came to 0.32 µM.

With CGTKWLTEVWPLC (modifications not checked) [P16C1], the Kd is 0.09 µM.

A further assay concerns the target T1, HIV-1 reverse transcriptase, …. The assay can be described thus: RT polymerase inhibition assay, Ki from Dixon plot.
The molecule GTKALAEVIPLTEEAE (modifications not checked) [P7] displayed a Ki of 13.5 µM.

The molecule GTKAATEVIPLTEEAE (modifications not checked) [P6] showed an inhibition constant (Ki) of 5.7 µM.

As for GTKALTEVAPLTEEAE (modifications not checked) [P10], the inhibition constant Ki stood at 7.3 µM.

GTKGLTEVIPLTEEAE (modifications not checked) [P5] came in with an inhibition constant Ki of 20 µM.

GTKALTAVIPLTEEAE (modifications not checked) [P8] gave an inhibition constant (Ki) of 57 µM.

For the molecule GTKWLTEWIPLTAEAEC (not fully specified) [PAW-FITC], the inhibitory constant (Ki) was determined as 2.7 µM.

Consider GTKWLTEVWPL (modifications not checked) [P16], for which the inhibition constant Ki was 14 µM.

GTKAWTEVWPL (modifications not checked) [P17] registered a Ki of 35 µM.

The molecule GTKALTEVIPLTEEAE (modifications not checked) [P1] returned a Ki of 7.5 µM.

Molecule GTKALTEVIALTEEAE (modifications not checked) [P11] registered an inhibition constant Ki of 7 µM.

With RGTKALTEVIPLTEEAE (modifications not checked) [Pep-A], the Ki amounted to 35 µM.

GTKALTEVIPLAEEAE (modifications not checked) [P13]: the inhibitory constant (Ki) was found to be 10.2 µM.

For GTKALTEVIPATEEAE (modifications not checked) [P12], the inhibition constant (Ki) came out at 22 µM.

Molecule GTKALTEAIPLTEEAE (modifications not checked) [P9] registered an inhibition constant Ki of 15 µM.

GTKWLTEWIPLTAEAE (modifications not checked) [PAW] displayed a Ki of 0.7 µM.

GTAALTEVIPLTEEAE (modifications not checked) [P4]: the Ki came out at 15 µM.

In turn, GTKWLTEWIPL (modifications not checked) [P24] had an inhibitory constant (Ki) of 0.7 µM.

In turn, GTKALTEVIPLT (modifications not checked) [P18] returned an inhibition constant (Ki) of 53 µM.

Turning to GTKWLTEWIPLTAE (modifications not checked) [P27], the inhibition constant (Ki) was determined as 0.05 µM.

KWLTEWIPLTAEAE (modifications not checked) [P26] displayed an inhibition constant Ki of 1.8 µM.

On to KWLTEWIPLTAE (modifications not checked) [P29], for which the Ki is 1 µM.

Consider ATKALTEVIPLTEEAE (modifications not checked) [P2], for which the Ki was determined as 28 µM.

Regarding GAKTETLVIPETELEA (modifications not checked) [Pscramble], the Ki came out at 61 µM.

On to GTKWATEWAPLTAEAE (modifications not checked) [P28], for which the Ki is 2 µM.

GTKAATEVIPLT (modifications not checked) [P19] returned a Ki of 49 µM.

In the next assay the target is HIV-1 integrase (HIV-1). As to the kind of experiment: IN 3′ processing inhibition, fluorescence anisotropy. (Polarisation of emitted light reports the rotation of a fluorescent probe.)
CGTKWLTEWIPLTAEAEC (modifications not checked) [PAW-C1] registered an inhibitory constant (Ki) of 21 µM.

Consider GTKWLTEVWPL (modifications not checked) [P16], for which the Ki was 10 µM.

For the molecule GTKWLTEWIPLTAEAE (modifications not checked) [PAW], the inhibition constant Ki was 12 µM.

In turn, GCKWLTEWIPLTAEAEC (modifications not checked) [PAW-C2] returned an inhibition constant (Ki) of 8 µM.

GTKWLTEWIPLTAE (modifications not checked) [P27] returned an inhibition constant Ki above 100 µM.

Molecule CGTKWLTEVWPLC (modifications not checked) [P16C1] showed a Ki of 4.3 µM.

In the case of CGTKWLTEWIPLTAEC (modifications not checked) [P27C1], the Ki was above 100 µM.

The target in a further assay is T1, HIV-1 reverse transcriptase, …. As to the kind of experiment: steady-state fluorescence titration, 200 nM FITC-PAW titrated with RT.
Consider GTKWLTEWIPLTAEAEC (not fully specified) [PAW-FITC], for which the Kd is 0.033 µM and the quenching of FITC-PAW fluorescence worked out at 39%.

The target in the next assay is T2, RT:p/t (HIV-1 RT heterodimer pre-bound …). As to the kind of experiment: steady-state fluorescence titration, 20 nM RT:FAM-p/t titrated with PAW.
GTKWLTEWIPLTAEAE (modifications not checked) [PAW] gave a Kd of 0.04 µM and a quenching of fluorescence of FAM-labelled p/t of 39%.

The target is the same in another assay. The assay can be described thus: steady-state fluorescence titration, 200 nM FITC-PAW titrated with RT:p/t.
On to GTKWLTEWIPLTAEAEC (not fully specified) [PAW-FITC], for which the Kd is 0.0071 µM and the quenching of FITC-PAW fluorescence amounted to 57%.

Another assay concerns the target HIV-1 integrase (HIV-1). As to the kind of experiment: steady-state fluorescence anisotropy, fluorescein-labelled peptide titrated with IN.
Molecule GTKWLTEWIPLTAEAEC (not fully specified) [PAW-FITC] returned a Kd of 0.4 µM and a Δr (change of steady-state anisotropy) of 0.06.

The next assay addresses HIV-1 integrase (HIV-1). As to the kind of experiment: dissociation of the IN/LEDGF complex, AlphaScreen and immunoprecipitation; partner displaced: LEDGF. A general note: Alpha assays give light when donor and acceptor beads are brought close together.
As usually defined, the EC50 is the midpoint of the concentration-response curve. Consider GTKWLTEVWPL (modifications not checked) [P16], for which the EC50 was 0.8 µM.

As for GTKWLTEWIPLTAEAE (modifications not checked) [PAW], the concentration giving a half-maximal response (EC50) worked out at 2 µM.

Molecule GTKWLTEWIPL (modifications not checked) [P24] registered an EC50 of 13 µM.

KWLTEWIPLTAEAE (modifications not checked) [P26] came in with a concentration for a half-maximal effect (EC50) above 50 µM.
